Measured values as given in the supplement of paper PMC7877785.
± gives the uncertainty stated by the source.

Assay: self-splicing fitness, log relative to wild type (ln ratio); higher = more splicing; Tetrahymena group I intron in knt gene, E. coli kanamycin selection, DiMSum; sequences stand for … in CUCUCU…GGAGGGAAAAGUUAUCAGGCAUGCACCUGGUAGCUAGUCUUUAAACCAAUAGAUUGCAUCGGUUUAAAAGGCAAGACCGUCAAAUUGCGGGAAAGGGGUCAACAGCCGUUCAGUACCAAGUCUCAGGGGAAACUUUGAGAUGGCCUUGCAAAGGGUAUGGUAAUAAGCUGACGGACAUGGUCCUAACCACGCAGCCAAGUCCUAAGUCAACAGAUCUUCUGUUGAUAUGGAUGCAGUUCACAGACUAAAUGUCGGUCGGGGAAGAUGUAUUCUUCUCAUAAGAUAUAGUCGGACCUCUCCUUAAUGGGAGCUAGCGGAUGAAGUGAUGCAACACUGGAGCCGCUGGGAACUAAUUUGUAUGCGAAAGUAUAUUGAUUAGUUUUGGAGUACUCGUGGUCG
Method in brief: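 Colonies from six replicate transformations of E. coli BL21(DE3) were pooled and amplicon-sequenced on an Illumina HiSeq 2500. The library placed an intron with all eight P1ex-region nucleotides randomised inside the knt kanamycin-resistance gene on pET-22b(+), and cells grew overnight at 37°C or 30°C on LB agar with or without 25 μg/mL kanamycin (plus 100 μg/mL carbenicillin, 50 μM IPTG, 0.2% rhamnose). Fitness is the DiMSum error-weighted combination of wild-type-normalised replicate fold changes, kanamycin versus none.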

Sequence	self-splicing fitness (ln) (30 °C)	self-splicing fitness (ln) (37 °C)
UCGUAGCAAUAUUACGCCUG	-0.246 ± 0.12	0.322 ± 0.13
UCGUAGCAAUAUUACGCUGA	-2.45 ± 0.28	-1.35 ± 0.15
UCGUAGCAAUAUUACGGAGG	-2.53 ± 0.27	-3.14 ± 0.3
UCGUAGCAAUAUUACGGUAC	-4.6 ± 0.46	-3.01 ± 0.34
UCGUAGCAAUAUUACGGUAU	-2.96 ± 0.22	-1.93 ± 0.28
UCGUAGCAAUAUUACGGUUA	-1.39 ± 0.15	-0.71 ± 0.12
UCGUAGCAAUAUUACGUCAA	-2.24 ± 0.23	-1.53 ± 0.15
UCGUAGCAAUAUUACGUCAC	-1.39 ± 0.18	-2 ± 0.38
UCGUAGCAAUAUUACGUCGA	-2.49 ± 0.17	-1.91 ± 0.15
UCGUAGCAAUAUUACGUCGG	-1.49 ± 0.15	-0.337 ± 0.17
UCUAAGCAAUAUUACGAAAC	–	-2.6 ± 0.45
UCUAAGCAAUAUUACGAACG	-1.64 ± 0.094	-1.28 ± 0.11
UCUAAGCAAUAUUACGAAUG	-1.16 ± 0.095	-0.995 ± 0.12
UCUAAGCAAUAUUACGACAA	-1.13 ± 0.11	-1.33 ± 0.11
UCUAAGCAAUAUUACGAGGG	-3.29 ± 0.47	-2.61 ± 0.27
UCUAAGCAAUAUUACGAUCA	-0.876 ± 0.21	-0.379 ± 0.14
UCUAAGCAAUAUUACGAUGA	-0.162 ± 0.058	0.0109 ± 0.072
UCUAAGCAAUAUUACGCCAG	-1.18 ± 0.12	-0.166 ± 0.16
UCUAAGCAAUAUUACGCCCC	–	-1.6 ± 0.44
UCUAAGCAAUAUUACGCCGU	-1.72 ± 0.12	-1.09 ± 0.19
UCUAAGCAAUAUUACGCGUC	-3.36 ± 0.24	-2.01 ± 0.18
UCUAAGCAAUAUUACGCUGA	-3.56 ± 0.41	-2.52 ± 0.33
UCUAAGCAAUAUUACGGAGG	-2.49 ± 0.26	-3.05 ± 0.43
UCUAAGCAAUAUUACGGAUC	-3.37 ± 0.37	-3.24 ± 0.37
UCUAAGCAAUAUUACGGGGA	-1.76 ± 0.11	-0.821 ± 0.12

Sequence	self-splicing fitness (ln) (30 °C)	self-splicing fitness (ln) (37 °C)
UCUAAGCAAUAUUACGGUAG	-2.09 ± 0.11	-0.881 ± 0.11
UCUAAGCAAUAUUACGUACC	–	-1.04 ± 0.47
UCUAAGCAAUAUUACGUAGC	-2.23 ± 0.19	-1.25 ± 0.2
UCUAAGCAAUAUUACGUAUG	-1.95 ± 0.089	-1.6 ± 0.11
UCUAAGCAAUAUUACGUGAC	-2.88 ± 0.23	-2.95 ± 0.28
UCUAAGCAAUAUUACGUGAU	-4.27 ± 0.22	-2.69 ± 0.18
UCUAAGCAAUAUUACGUGCG	-0.493 ± 0.1	-0.581 ± 0.15
UCUAAGCAAUAUUACGUGGU	-2.45 ± 0.12	-2 ± 0.14
UCUAAGCAAUAUUACGUUAC	-2.8 ± 0.18	-2.09 ± 0.26
UCUCAGCAAUAUUACGAAAC	-2.16 ± 0.26	-2.29 ± 0.5
UCUCAGCAAUAUUACGAAGA	-1.98 ± 0.15	-1.21 ± 0.15
UCUCAGCAAUAUUACGACUU	-1.63 ± 0.073	-1.75 ± 0.11
UCUCAGCAAUAUUACGAGGC	–	-1.54 ± 0.36
UCUCAGCAAUAUUACGCCCU	-2.5 ± 0.35	-2 ± 0.44
UCUCAGCAAUAUUACGCGAA	-2.12 ± 0.17	-1.85 ± 0.21
UCUCAGCAAUAUUACGCUCA	–	-1.48 ± 0.43
UCUCAGCAAUAUUACGCUGC	-3.83 ± 0.21	-2.06 ± 0.17
UCUCAGCAAUAUUACGCUUG	-3.17 ± 0.16	-3.32 ± 0.33
UCUCAGCAAUAUUACGCUUU	-3.09 ± 0.3	-2.22 ± 0.31
UCUCAGCAAUAUUACGGCAA	-2.86 ± 0.25	-2.44 ± 0.17
UCUCAGCAAUAUUACGGGGG	-3.53 ± 0.27	-2.02 ± 0.2
UCUCAGCAAUAUUACGGUAA	-2.11 ± 0.14	-1.02 ± 0.12
UCUCAGCAAUAUUACGGUCU	-3.23 ± 0.2	-1.74 ± 0.15
UCUCAGCAAUAUUACGUCAA	-3.21 ± 0.27	-2.35 ± 0.21
UCUCAGCAAUAUUACGUCAC	-3.75 ± 0.19	-2.55 ± 0.17

Sequence	self-splicing fitness (ln) (30 °C)	self-splicing fitness (ln) (37 °C)
UCUCAGCAAUAUUACGUCCA	-2.72 ± 0.16	-1.35 ± 0.2
UCUCAGCAAUAUUACGUCGC	-2.22 ± 0.23	-2.47 ± 0.33
UCUCAGCAAUAUUACGUGCA	-0.751 ± 0.065	-0.0852 ± 0.071
UCUCAGCAAUAUUACGUGCU	-4.22 ± 0.23	-2.61 ± 0.2
UCUCAGCAAUAUUACGUGGC	-3.61 ± 0.31	-2.55 ± 0.28
UCUCAGCAAUAUUACGUGUC	-3.41 ± 0.14	-3.2 ± 0.17
UCUCAGCAAUAUUACGUUCG	-3.46 ± 0.2	-2.28 ± 0.25
UCUCAGCAAUAUUACGUUGA	-2.9 ± 0.2	-2.93 ± 0.24
UCUCAGCAAUAUUACGUUGU	-3.71 ± 0.21	-3.39 ± 0.21
UCUGAGCAAUAUUACGAACA	-3.18 ± 0.34	-3.46 ± 0.35
UCUGAGCAAUAUUACGAGAU	-3.79 ± 0.37	-2.48 ± 0.3
UCUGAGCAAUAUUACGAGUU	-2.13 ± 0.25	–
UCUGAGCAAUAUUACGAUAA	–	-2.05 ± 0.43
UCUGAGCAAUAUUACGAUUA	-1.85 ± 0.17	-1.49 ± 0.21
UCUGAGCAAUAUUACGCUAC	-3.66 ± 0.3	-3.09 ± 0.47
UCUGAGCAAUAUUACGCUCG	-3.7 ± 0.37	-0.349 ± 0.23
UCUGAGCAAUAUUACGCUCU	-2.96 ± 0.46	–
UCUGAGCAAUAUUACGGAAU	-3.33 ± 0.34	-1.88 ± 0.27
UCUGAGCAAUAUUACGGGAC	-2.86 ± 0.4	-2.37 ± 0.23
UCUGAGCAAUAUUACGGUCG	-4.19 ± 0.33	-2.67 ± 0.28
UCUGAGCAAUAUUACGUAAA	-3.29 ± 0.19	-1.69 ± 0.18
UCUGAGCAAUAUUACGUAGA	-0.966 ± 0.1	-0.205 ± 0.14
UCUGAGCAAUAUUACGUAUC	-3.62 ± 0.25	-1.69 ± 0.25
UCUGAGCAAUAUUACGUGGG	-2.78 ± 0.14	-0.918 ± 0.11
UCUUAGCAAUAUUACGAACU	-2.7 ± 0.36	-1.84 ± 0.25

Sequence	self-splicing fitness (ln) (30 °C)	self-splicing fitness (ln) (37 °C)
UCUUAGCAAUAUUACGAAGA	-3.02 ± 0.49	-2.64 ± 0.38
UCUUAGCAAUAUUACGAAUG	-2.87 ± 0.43	-2.01 ± 0.38
UCUUAGCAAUAUUACGAGAC	-2.23 ± 0.25	–
UCUUAGCAAUAUUACGAGUA	-0.787 ± 0.26	-1.19 ± 0.27
UCUUAGCAAUAUUACGAUGC	-2.66 ± 0.3	–
UCUUAGCAAUAUUACGAUUG	-2.74 ± 0.22	-1.23 ± 0.18
UCUUAGCAAUAUUACGCCUC	–	-2.31 ± 0.45
UCUUAGCAAUAUUACGCGUC	-4.03 ± 0.33	–
UCUUAGCAAUAUUACGCUAU	-4.16 ± 0.25	-2.03 ± 0.18
UCUUAGCAAUAUUACGGCUA	-2.85 ± 0.41	-2.34 ± 0.42
UCUUAGCAAUAUUACGGCUG	-2.71 ± 0.28	0.118 ± 0.24
UCUUAGCAAUAUUACGUAAA	-3.58 ± 0.29	-2.38 ± 0.25
UCUUAGCAAUAUUACGUAGU	-2.27 ± 0.13	-1.35 ± 0.14
UCUUAGCAAUAUUACGUCUG	-2.67 ± 0.22	-2.95 ± 0.37
UCUUAGCAAUAUUACGUCUU	-3.21 ± 0.32	-3 ± 0.27
UCUUAGCAAUAUUACGUGAA	-1.9 ± 0.2	-2.82 ± 0.43
UCUUAGCAAUAUUACGUUCC	-3.4 ± 0.3	–
UGAAAGCAAUAUUACGAAAA	-2.53 ± 0.23	-1.14 ± 0.16
UGAAAGCAAUAUUACGAAGA	-2.23 ± 0.3	-0.283 ± 0.19
UGAAAGCAAUAUUACGACCG	-0.0402 ± 0.16	0.0392 ± 0.2
UGAAAGCAAUAUUACGACGC	-2.04 ± 0.19	0.0256 ± 0.17
UGAAAGCAAUAUUACGAGAC	–	-1.65 ± 0.38
UGAAAGCAAUAUUACGAUCG	-0.144 ± 0.15	0.0927 ± 0.17
UGAAAGCAAUAUUACGCAUG	-0.902 ± 0.079	-0.484 ± 0.091
